This data set addresses trypsin (Sus scrofa, UniProt P00761). Description: SDPR surface display protease resistance, anti-6xHis staining, trypsin. To be noted: HEK-293 cells, up to 40 μg/ml trypsin for 20 minutes. It is filed as cell-based. Here is the method:
Soluble peptides were exposed to 500 U/mL porcine trypsin and analyzed by HPLC. Protease resistance was also assessed by using SDPR-displaying peptides. The SDPR vector is similar to the a surface display GFP FasL(SDGF) vector, but contains a C-terminal 6×His tag (SEQ ID NO: 180) and all basic or aromatic amino acid residues on the stalk removed. Protease resistance is then tested by incubation of cells displaying peptides with trypsin or chymotrypsin, followed by incubation in 10 mM DTT, and staining with an anti-6×His fluorophore-labeled antibody (“6×His” disclosed as SEQ ID NO: 180). If peptides are uncleaved, they retain the His tag and are stained with by the antibody. A control protease-sensitive knottin peptide (SK) was used as a positive control. Cells displaying peptides were treated with up to 40 μg/ml trypsin or chymotrypsin.
To determine the impact of protease treatment or reducing condition on the function of the peptides, i.e., binding activity, various binding or functional assays can be performed. […] After treatment with the protease and reducing agent, any linearized peptide product or degradation product resulting from reduction and/or proteolysis by treatment with a protease can be detected or analyzed by staining against the 6×His tag (SEQ ID NO: 180). […]

Sequence of trypsin (P00761 9-231): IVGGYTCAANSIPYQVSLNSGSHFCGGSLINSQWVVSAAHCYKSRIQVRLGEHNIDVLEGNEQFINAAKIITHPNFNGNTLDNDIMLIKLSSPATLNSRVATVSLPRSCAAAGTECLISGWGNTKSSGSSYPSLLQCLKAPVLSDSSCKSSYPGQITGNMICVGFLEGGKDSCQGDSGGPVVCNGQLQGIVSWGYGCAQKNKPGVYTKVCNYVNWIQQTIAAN

With “GSPDEYIERAKECCKKQDIQCCLRIFDESKDPNVMLICLFCW [SEQ ID NO: 43]”, the “resistance of surface-displayed peptide to cleavage by trypsin” value is recorded as “partially resistant”.

Values taken from US20190375786A1, “STABLE PEPTIDES AND METHODS OF USE THEREOF” (Fred Hutchinson Cancer Research Center, priority 2016, published 2019).
